The text below walks through data of paper PMC11367152, “An aptamer‐guided fluorescence polarisation platform for extracellular vesicle liquid biopsy”.

The data set deals with HER2 on immobilised SKBR3 EVs (UniProt P04626 23-1255). Briefly: fluorescence polarisation; SKBR3 EVs captured by anti-CD9/CD81; delta FP below LOD; FITC aptamer 5 nM, 1 h, room temperature, in antibody-captured EV wells; aptamers folded in PBS + 1.0 mM MgCl2 (CD63-BP, control) or PBS + 5.0 mM MgCl2 (HER2-HApt); pH not stated. The conditions noted are these: protein: native; tags: none; label: 5'-FITC; folded single strand.

As to GCGCGAATGGGCGCGC (structured_DNA, 3' inverted dT) [FITC-negative control aptamer], the binding result was “no binding”.
